Assay results: article PMC3587332 (FEBS letters, 2012)

Legend:
Pap1-GST = Pap1-GST (S. cerevisiae, UniProt P29468 1-568); test: pull-down
Pap1-His6 [1] = biological target: T1, Pap1-His6 (S. cerevisiae, UniProt P29468 1-568); test: pull-down
Pap1-His6 [2] = biological target: T1, Pap1-His6; test: co-IP
ΔN-Pap1-His6 = ΔN-Pap1-His6 (S. cerevisiae, UniProt P29468 19-568); test: co-IP
ΔN-Pap1-GST = ΔN-Pap1-GST (S. cerevisiae, UniProt P29468 19-568); test: pull-down
ΔN-Pap1-GST, sequence (P29468 19-568, stated change not applied): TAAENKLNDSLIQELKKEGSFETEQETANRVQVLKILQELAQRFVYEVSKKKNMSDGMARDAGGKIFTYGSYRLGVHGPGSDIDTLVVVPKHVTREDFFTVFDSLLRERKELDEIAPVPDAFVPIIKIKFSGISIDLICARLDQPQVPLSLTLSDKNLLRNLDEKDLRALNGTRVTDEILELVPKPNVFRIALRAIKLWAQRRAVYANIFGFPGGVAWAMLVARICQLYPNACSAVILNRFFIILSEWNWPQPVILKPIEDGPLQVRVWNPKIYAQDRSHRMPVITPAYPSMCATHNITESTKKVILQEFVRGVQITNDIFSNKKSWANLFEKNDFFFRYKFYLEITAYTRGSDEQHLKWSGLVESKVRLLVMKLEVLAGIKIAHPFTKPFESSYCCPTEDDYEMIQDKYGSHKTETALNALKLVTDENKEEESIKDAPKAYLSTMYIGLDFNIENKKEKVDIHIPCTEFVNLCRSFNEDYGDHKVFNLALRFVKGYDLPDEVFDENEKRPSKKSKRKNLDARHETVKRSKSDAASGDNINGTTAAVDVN

Pap1-GST, sequence (P29468 whole entry): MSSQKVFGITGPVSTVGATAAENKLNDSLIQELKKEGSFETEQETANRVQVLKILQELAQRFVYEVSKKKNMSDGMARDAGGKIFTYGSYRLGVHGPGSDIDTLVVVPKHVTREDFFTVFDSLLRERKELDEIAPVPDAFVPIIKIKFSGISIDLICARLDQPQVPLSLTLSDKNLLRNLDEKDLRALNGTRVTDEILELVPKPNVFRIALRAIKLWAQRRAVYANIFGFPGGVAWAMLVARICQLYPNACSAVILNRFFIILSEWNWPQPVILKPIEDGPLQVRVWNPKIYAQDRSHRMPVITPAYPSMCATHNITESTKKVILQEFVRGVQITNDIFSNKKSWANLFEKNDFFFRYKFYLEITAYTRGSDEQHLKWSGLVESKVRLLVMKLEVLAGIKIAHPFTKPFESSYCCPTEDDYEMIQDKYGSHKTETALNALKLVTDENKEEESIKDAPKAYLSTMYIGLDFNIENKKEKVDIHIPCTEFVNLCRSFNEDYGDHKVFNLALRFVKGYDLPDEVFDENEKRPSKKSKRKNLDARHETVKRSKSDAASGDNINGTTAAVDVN
T1 sequence (P29468 whole entry): as above
ΔN-Pap1-His6, sequence (P29468 19-568, stated change not applied): as the sequence (P29468 19-568, stated change not applied) above

Row | Binder | binding result (Pap1-GST) | binding result (Pap1-His6 [1]) | binding result (Pap1-His6 [2]) | binding result (ΔN-Pap1-His6) | binding result (ΔN-Pap1-GST)
1 | Sub1-V5-His6 (natural protein, S. cerevisiae, UniProt P54000 1-292, looked up) MSYYNRYRNKRRSDNGGGNLSNSNNNNGGMPSGLSASDAIFDLGKNKRVTVRQFRNINLIDIREYYLDSSTGEMKPGKKGISLTEDLYDELLKHRLNIDEALRRLGSKRPKTKMVRLLSDDEYEDDNNNDSTNNDKDKNGKDKNSPKKRREDKSKASNESHDLEPRSKKKKPAPPTLLPHEENIQNAEREANATLIIPGQAGRKQQEERKQKEKEEAEEAKAKAVAEQEKEAKAKEKIAEPEPEPVPTLQAKKEDIVSNINESKDANSSDEEFAQSLEAEMNKAEDDISEEE | binds | – | – | – | –
2 | Nab6-V5-His6 (the last 210 amino acids) (domain or fragment, S. cerevisiae, UniProt Q03735 925-1134, looked up) GGGETGTANNTGHENESELEAENENGNETGSFGGLGLAVASSDVKRATSDETDYEDIFNKSSGSSDSSSDVEVIMHSPSDPEYALKSQTLRSSSQTVINSKRPVKIEDEEEAVGMSQLNYRSSLRQAPPRAPSTLSYNHSKNNETPMQDIFTNGETANNRKKKRGSFARHRTIPGSDVMAQYLAQVQHSTFMYAANILGASAEDNTHPDE | binds | – | – | – | –
3 | GST-Pta1 (1–300) (domain or fragment, S. cerevisiae, UniProt Q01329 1-300, looked up) MSSAEMEQLLQAKTLAMHNNPTEMLPKVLETTASMYHNGNLSKLKLPLAKFFTQLVLDVVSMDSPIANTERPFIAAQYLPLLLAMAQSTADVLVYKNIVLIMCASYPLVLDLVAKTSNQEMFDQLCMLKKFVLSHWRTAYPLRATVDDETDVEQWLAQIDQNIGVKLATIKFISEVVLSQTKSPSGNEINSSTIPDNHPVLNKPALESEAKRLLDMLLNYLIEEQYMVSSVFIGIINSLSFVIKRRPQTTIRILSGLLRFNVDAKFPLEGKSDLNYKLSKRFVERAYKNFVQFGLKNQII | – | binds | – | – | –
4 | Fip1(1–206) (domain or fragment, S. cerevisiae, UniProt P45976 1-206, looked up) MSSSEDEDDKFLYGSDSELALPSSKRSRDDEADAGASSNPDIVKRQKFDSPVEETPATARDDRSDEDIYSDSSDDDSDSDLEVIISLGPDPTRLDAKLLDSYSTAATSSSKDVISVATDVSNTITKTSDERLITEGEANQGVTATTVKATESDGNVPKAMTGSIDLDKEGIFDSVGITTIDPEVLKEKPWRQPGANLSDYFNYGFN | binds | – | binds | binds | binds
